The values that follow come from patent publication US20250270332A1.

This test concerns the target FZD/LRP. Kind of test: cell-based or functional assay.

Wnt3a, recombinantly produced ligand, sequence (P56704 19-352): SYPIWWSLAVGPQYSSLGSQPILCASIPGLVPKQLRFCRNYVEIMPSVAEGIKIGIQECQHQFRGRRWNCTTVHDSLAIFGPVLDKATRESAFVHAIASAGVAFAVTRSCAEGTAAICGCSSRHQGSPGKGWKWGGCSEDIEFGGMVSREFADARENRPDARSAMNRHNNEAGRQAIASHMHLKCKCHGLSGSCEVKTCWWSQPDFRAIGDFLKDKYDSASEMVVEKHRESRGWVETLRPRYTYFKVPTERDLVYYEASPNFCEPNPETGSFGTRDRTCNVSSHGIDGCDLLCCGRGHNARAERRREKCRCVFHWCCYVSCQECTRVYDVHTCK

Wnt3a, recombinantly produced ligand: the % Wnt Maxima Avg stood at 100%; the EC50 (nM), TOPFLASH assay turned out to be 6 nM; the Maximal Signal (% Wnt3a maxima) (% Wnt3a maxima) was 100; the Topflash EC50 (nM) Avg came out at 6 nM.
